For orientation: stoichiometry N means a count of units in the complex or per binding partner.

The target in test [1] is Atg2 (untagged, overproduced, of the purified Atg2–Atg18 complexes) (S. cerevisiae) (UniProt P53855). As to the kind of experiment: liposome flotation assay.
For test [2], the target named is Atg2 (untagged, overproduced, of the purified Atg2–Atg18 complexes) (S. cerevisiae, UniProt P53855 1-1592). As to the kind of experiment: liposome flotation assay.
Atg2 (untagged, overproduced, of the purified Atg2–Atg18 complexes), sequence (P53855 whole entry, one chain of several): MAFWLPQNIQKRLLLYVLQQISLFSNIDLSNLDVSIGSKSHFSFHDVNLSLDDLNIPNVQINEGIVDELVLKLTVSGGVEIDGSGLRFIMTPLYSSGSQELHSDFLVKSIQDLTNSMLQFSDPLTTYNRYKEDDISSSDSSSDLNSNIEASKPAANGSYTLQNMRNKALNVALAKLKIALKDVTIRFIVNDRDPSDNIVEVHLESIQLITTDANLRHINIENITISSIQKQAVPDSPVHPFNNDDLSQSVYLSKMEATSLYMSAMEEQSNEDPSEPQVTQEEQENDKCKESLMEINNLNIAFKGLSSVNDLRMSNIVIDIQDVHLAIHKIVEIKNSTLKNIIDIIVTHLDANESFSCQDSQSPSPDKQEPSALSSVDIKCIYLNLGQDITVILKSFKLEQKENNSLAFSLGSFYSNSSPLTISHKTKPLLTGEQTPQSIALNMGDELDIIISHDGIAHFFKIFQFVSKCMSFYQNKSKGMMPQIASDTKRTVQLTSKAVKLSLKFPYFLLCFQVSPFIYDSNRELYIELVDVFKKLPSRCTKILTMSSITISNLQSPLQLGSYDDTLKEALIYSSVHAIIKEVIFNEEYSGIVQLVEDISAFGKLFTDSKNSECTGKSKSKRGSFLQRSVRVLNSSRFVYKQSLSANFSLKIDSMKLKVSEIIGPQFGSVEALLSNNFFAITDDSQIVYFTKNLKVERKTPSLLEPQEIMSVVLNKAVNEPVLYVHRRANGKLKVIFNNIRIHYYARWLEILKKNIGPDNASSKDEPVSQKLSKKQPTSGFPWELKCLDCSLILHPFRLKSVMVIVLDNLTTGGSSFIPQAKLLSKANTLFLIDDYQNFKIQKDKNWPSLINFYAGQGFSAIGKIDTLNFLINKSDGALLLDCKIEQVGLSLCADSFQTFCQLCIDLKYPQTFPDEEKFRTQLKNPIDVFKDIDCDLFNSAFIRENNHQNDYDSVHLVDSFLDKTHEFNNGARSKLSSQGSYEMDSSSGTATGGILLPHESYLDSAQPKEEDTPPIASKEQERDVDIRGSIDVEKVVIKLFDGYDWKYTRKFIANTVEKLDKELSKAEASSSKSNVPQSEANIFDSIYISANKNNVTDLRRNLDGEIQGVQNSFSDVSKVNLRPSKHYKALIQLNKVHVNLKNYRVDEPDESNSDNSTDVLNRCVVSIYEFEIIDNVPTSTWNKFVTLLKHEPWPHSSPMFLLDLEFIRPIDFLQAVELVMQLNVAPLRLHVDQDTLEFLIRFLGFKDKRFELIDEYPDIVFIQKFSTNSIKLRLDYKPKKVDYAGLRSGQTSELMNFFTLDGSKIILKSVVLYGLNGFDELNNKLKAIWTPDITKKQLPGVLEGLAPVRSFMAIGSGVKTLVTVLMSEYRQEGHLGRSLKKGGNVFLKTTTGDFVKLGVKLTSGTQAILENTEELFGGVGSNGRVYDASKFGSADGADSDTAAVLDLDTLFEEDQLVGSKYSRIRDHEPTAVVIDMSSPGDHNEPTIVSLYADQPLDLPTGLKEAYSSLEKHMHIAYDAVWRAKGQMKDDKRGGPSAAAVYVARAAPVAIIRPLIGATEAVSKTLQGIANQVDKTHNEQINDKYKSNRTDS

Atg2 (untagged, overproduced, of the purified Atg2–Atg18 complexes) (S. cerevisiae), sequence (P53855 whole entry, one chain of several): as above

“Atg18^FAAG-TAP (overproduced, mutant unable to bind PtdIns3P) (from UniProt P43601 1-500) (natural protein)” registered a percent of Atg18^FAAG on liposomes with Atg9 in test [1] of under 58%.

B1: Atg18-TAP (overproduced, of the purified Atg2–Atg18 complexes) (natural protein, S. cerevisiae, UniProt P43601 1-500, looked up)
chain: MSDSSPTINFINFNQTGTCISLGTSKGFKIFNCEPFGKFYSEDSGGYAIVEMLFSTSLLALVGIGDQPALSPRRLRIINTKKHSIICEVTFPTSILSVKMNKSRLVVLLQEQIYIYDINTMRLLHTIETNPNPRGLMAMSPSVANSYLVYPSPPKVINSEIKAHATTNNITLSVGGNTETSFKRDQQDAGHSDISDLDQYSSFTKRDDADPTSSNGGNSSIIKNGDVIVFNLETLQPTMVIEAHKGEIAAMAISFDGTLMATASDKGTIIRVFDIETGDKIYQFRRGTYATRIYSISFSEDSQYLAVTGSSKTVHIFKLGHSMSNNKLDSDDSNMEEAAADDSSLDTTSIDALSDEENPTRLAREPYVDASRKTMGRMIRYSSQKLSRRAARTLGQIFPIKVTSLLESSRHFASLKLPVETNSHVMTISSIGSPIDIDTSEYPELFETGNSASTESYHEPVMKMVPIRVVSSDGYLYNFVMDPERGGDCLILSQYSILMD
On to B1, for which the “stoichiometry N” value in test [2] is about 1 ratio.

Source of the values: PMC6080931 (The Journal of Cell Biology, 2018).
